The values below come from patent US20090036382A1, “TGF-Beta Modulators and Use Thereof” (Universita' Degli Studi Di Padova, priority 2006, published 2009).

One series deals with T1, pro TGF-β1 processing (Homo sapiens, UniProt P01137).
T1 construct: Flag; expressed in transfected cells; host or cells: HEK293T (A6); mouse embryo fibroblasts (A8)
The series can be described thus: Western blot of pro TGF-β1 conversion to LAP and mature TGF-β1 in transfected HEK293T cells. The class given is cell-based. As to conditions: for Intensity of the band corresponding to mature TGF-β1 / Precursor (pro TGF-β) band: HEK293T supernatant, anti-TGF-β1 Western-blot, emilin-1 cotransfected, peptide at 100 μM; for Intensity of the band corresponding to mature TGF-β1: FIG. 5A; for Precursor (pro TGF-β) band: FIG. 5A lanes 2 and 3. From the text: (§1) • The construct for emilin 1 expression was engineered in pCS2 vector (Rupp R. A. et al., 1994, Genes Dev 8, 1311-1323) (for a physical map of the vector, see the site faculty.washington.edu/rtmoon/pcs2+.html) as described (Zanetti M. et al., 2004, Mol Cell Biol 24, 638-650); the vector used for proTGF-β expression in MEF and HEK293T cells is pCDNA3.1 (Invitrogen). Vectors containing the coding sequence for human pro TGF-β are described in Young and Murphy-Ullrich, 2004 (Young and Murphy-Ullrich, 2004, J Biol Chem 279, 38032-38039). The human pro TGF-β cDNA sequence is reported in the data bank (NP_000660; protein 000651). • The vector for Furin/SPC 1 expression is pCDNA3.1 (Invitrogen) • p15 and CAGA 12 promoter fragments are described in Jonk L. J. et al., 1998, J Biol Chem 273, 21145-21152 […]. • Constructs containing Flag sequences are described in Young G. D and Murphy-Ullrich J E, 2004, J Biol Chem 279, 38032-38039. • Constructs containing the Flag epitope (e.g. Flag-EMI-domain-GPI) were prepared as described in Chubet R G et al. Biotechniques 1996; 20(1):136-141 and detected by anti-Flag antibody (Kodak Inc.). • Constructs containing the GPI anchor were prepared as described in the Manual “Current Protocols in Cell Biology” Howard R. Petty Wayne State University, Detroit, Mich.; Juan S. Bonifacino, Mary Dasso, Joe B. Harford, Jennifer Lippincott-Schwartz, and Kenneth M. Yamada (eds.), Copyright C 2003 John Wiley & Sons, Inc. (GPI-anchor). In the construct Flag-EMI domain-GPI, the Flag sequence was inserted at the N-terminus after the signal peptide, while the GPI-anchor sequence was placed at the COOH-terminal end. • The construct emilin 1-KDEL was obtained by inserting the KDEL coding sequence described by Munro S., and Pelham, H. R., 1987, Cell 48, 899-907 upstream the emilin 1 STOP codon. • The construct containing the type II TGF-β receptor with HA epitope was described in Wrana J. L. et al., 1994, Nature 370, 341-347. • supplier of the drugs used: SP600125 (Calbiochem), SB431542 (Tocris). • Purified recombinant LAP and TGF-β1 proteins were purchased from (R&D Systems)
To verify whether emilin or its EMI domain inhibit TGF-β or its precursor, HEK293T cells were cotransfected with plasmids driving the expression of pro TGF-β1 (fused to the FLAG-domain, even though the antibody used were directed at LAP and TGF-β proteins) and emilin-1 (or EMI-domain). […] The anti-Flag antibody used was obtained from Kodak Inc; for the preparation of Flag constructs, see Younjg and Murphy-Ullrich (Young and Murphy-Ullrich, 2004).
As reported in the summary scheme above FIG. 5A, HEK293T cells were transfected with the plasmid encoding pro TGF-β1 (lane 1) and cotransfected with emilin-1 (lane 3) or treated with decanoyl-RVKR-CMK peptide (Decanoyl-Arg-Val-Lys-Arg-chloromethylketone, Alexis Corporation, Lausen, Switzerland) (lane 2) at a concentration of 100 μM. The peptide is an irreversible and competitive inhibitor of furin proprotein convertase and of other SPC family members (Proprotein Convertase); in addition, it inhibits pro-MMP2 dependent furin activation. The supernatant was then loaded on SDS-PAGE and detected by Western-blot with anti-TGF-β1 antibody. […] An increase of the precursor band in lanes 2 and 3 is […] to the decrease of TGF-β. Therefore it can be concluded that this assay detects an effect of emilin-1 on TGF-β1 processing that is similar to the effect of Furin inhibitors.
(Immunoblotting shows a protein as a band on a membrane.)

Series [1] concerns pro TGF-β1. The series can be described thus: Western blot of culture medium of MEF (-/- or +/+) transfected with Flag-proTGF-β1. The class given is cell-based, mouse. As to conditions: anti-Flag / anti-LAP, FIG. 5C. Here is the method:
In a subsequent experiment, Mouse Embryo Fibroblasts (MEF) derived from ko (−/−) or wild type (+/+) mice were transfected with a plasmid encoding Flag-proTGF-β1; the Furin inhibitor decanoyl-RVKR-CMK was added to the indicated samples. The culture medium was then subjected to western blotting with anti-Flag (FIG. 5C, upper inset) or anti-LAP (middle inset) antibody. […] To control the expression levels, western blot (in the lower inset) with an anti-β gal antibody was developed instead.

For the next series, the system named is pro TGF-β processing. The series can be described thus: Cell-mixing experiment, responder (CAGA12-lux) and stimulator (proTGF-β) HEK293T cells. As to conditions: emilin 1 cotransfected in S cells or only in R cells; FIG. 6A. In kind it is cell-based. As for the experimental part:
To determine where emilin and pro TGF-β interact (whether intracellularly or extracellularly), two types of HEK293T cells, responder (R) and stimulator (S), were prepared by transfecting the CAGA12-lux plasmid in the former and of the proTGF-β coding plasmid in the latter cells. Therefore, R cells respond to TGF-β by activating the luciferase reporter gene, while S cells produce TGF-β and can stimulate the former cells only if TGF-β is secreted. To determine where emilin-1 blocks TGF-β processing, R or S cells were cotransfected with the emilin 1 coding plasmid, and this transfection is indicated with the initial +E under the corresponding column bar in FIG. 6A.
To be able to compare the results obtained under the various conditions, all cells were cotransfected also with the CMV-lacZ vector. Mock refers to cells transfected with CMV-lacZ plasmid alone. […] Therefore, the inhibition of pro TGF-β processing by emilin 1 occurs in the extracellular compartment.

The subject of series [2] is pro TGF-β1. The series can be described thus: CAGA12-lux luciferase reporter in HEK293T cells co-transfected with pro TGF-β1 vector. The class given is cell-based, human.
Text: as §1
(§2) To verify how emilin or the EMI domain can contrast TGF-β1 activity independently from receptor binding, HEK293T cells were transfected with a construct coding luciferase placed under control of a TGF-β activated promoter: CAGA12-lux (Jonk et al., 1998) alone or in combination with a emilin1 expression vector (500 ng) as shown in FIG. 2B. After transfection, cells were treated (black bar) or not treated (white bar) with 5 ng/ml recombinant TGF-1 (lanes 1 and 2). Column bars from 3 to 6 report luciferase expression values in experiments with cells co-transfected with the expression vector for emilin1 (or EMI-domain or emilin1ΔEMI) alone (white bars) or in combination with the vector encoding pro TGF-β1 (black bars). Values show the mean±st. dev.
As further validation of the above observations, HEK293T cells were cotransfected with expression plasmids carrying the cDNAs shown in the summary scheme above the figure, along with CAGA12-lux and CMV-lacZ constructs, and luciferase expression levels were measured.
For orientation: Reporter assays use an easily measured gene product as a stand-in for the process of interest.

Another series deals with T2, pro TGF-β (Homo sapiens, UniProt P01137).
T2 construct: expressed in transfected cells; host or cells: HEK293T
The series can be described thus: Co-immunoprecipitation / Western blot of EMI domain or emilin1 with pro TGF-β in HEK293T cells. In kind it is binding. The note with it: HEK293T cell extracts or culture medium; anti-Flag / anti-LAP IP; FIG. 4A-4C. From the text:
• The construct for emilin 1 expression was engineered in pCS2 vector (Rupp R. A. et al., 1994, Genes Dev 8, 1311-1323) (for a physical map of the vector, see the site faculty.washington.edu/rtmoon/pcs2+.html) as described (Zanetti M. et al., 2004, Mol Cell Biol 24, 638-650); the vector used for proTGF-β expression in MEF and HEK293T cells is pCDNA3.1 (Invitrogen). Vectors containing the coding sequence for human pro TGF-β are described in Young and Murphy-Ullrich, 2004 (Young and Murphy-Ullrich, 2004, J Biol Chem 279, 38032-38039). […]

A further series has as its system mature TGF-β1. As to the kind of experiment: CAGA12-lux luciferase reporter in HEK293T cells treated with recombinant TGF-β1. The class given is cell-based. As to conditions: 5 ng/ml recombinant TGF-β1, expression vector 500 ng, FIG. 2B. As for the experimental part:
as §2

T1 sequence (P01137 30-390): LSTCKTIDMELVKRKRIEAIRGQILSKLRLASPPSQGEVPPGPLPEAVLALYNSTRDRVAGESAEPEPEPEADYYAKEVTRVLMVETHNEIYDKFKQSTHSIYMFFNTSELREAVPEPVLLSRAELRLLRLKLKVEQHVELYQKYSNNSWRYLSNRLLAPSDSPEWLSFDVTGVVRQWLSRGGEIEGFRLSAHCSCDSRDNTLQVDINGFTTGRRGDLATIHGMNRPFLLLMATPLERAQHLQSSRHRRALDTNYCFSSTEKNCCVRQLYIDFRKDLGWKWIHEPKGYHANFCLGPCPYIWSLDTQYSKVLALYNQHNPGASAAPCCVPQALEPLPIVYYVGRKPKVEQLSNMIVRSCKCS
T2 sequence (P01137 30-390): as above

As to “Decanoyl-Arg-Val-Lys-Arg-chloromethylketone [decanoyl-RVKR-CMK, reference compound]”, on pro TGF-β1 processing, the “Intensity of the band corresponding to mature TGF-β1” value is “decreases” and the “Precursor (pro TGF-β) band” value is given as “increase”. For the same molecule, the “pro TGF-β1 levels in culture medium” value in the series with pro TGF-β1 [1] is “results in increased pro TGF-β1 levels”.

B1: emilin-1: emilin family extracellular matrix protein carrying an EMI domain, GenBank NP—008977; expressed from pCS2 vector by transfection (protein)
chain: ASYPPRGFSLYTGSSGALSPGGPQAQIAPRPASRHRNWCAYVVTRTVSCVLEDGVETYVKYQPCAWGQPQCPQSIMYRRFLRPRYRVAYKTVTDMEWRCCQGYGGDDCAESPAPALGPASSTPRPLARPARPNLSGSSAGSPLSGLGGEGPGESEKVQQLEEQVQSLTKELQGLRGVLQGLSGRLAEDVQRAVETAFNGRQQPADAAARPGVHETLNEIQHQLQLLDTRVSTHDQELGHLNNHHGGSSSSGGSRAPAPASAPPGPSEELLRQLEQRLQESCSVCLAGLDGFRRQQQEDRERLRAMEKLLASVEERQRHLAGLAVGRRPPQECCSPELGRRLAELERRLDVVAGSVTVLSGRRGTELGGAAGQGGHPPGYTSLASRLSRLEDRFNSTLGPSEEQEESWPGAPGGLSHWLPAARGRLEQLGGLLANVSGELGGRLDLLEEQVAGAMQACGQLCSGAPGEQDSQVSEILSALERRVLDSEGQLRLVGSGLHTVEAAGEARQATLEGLQEVVGRLQDRVDAQDETAAEFTLRLNLTAARLGQLEGLLQAHGDEGCGACGGVQEELGRLRDGVERCSCPLLPPRGPGAGPGVGGPSRGPLDGFSVFGGSSGSALQALQGELSEVILSFSSLNDSLNELQTTVEGQGADLADLGATKDRIISEINRLQQEATEHATESEERFRGLEEGQAQAGQCPSLEGRLGRLEGVCERLDTVAGGLQGLREGLSRHVAGLWAGLRETNTTSQMQAALLEKLVGGQAGLGRRLGALNSSLQLLEDRLHQLSLKDLTGPAGEAGPPGPPGLQGPPGPAGPPGSPGKDGQEGPIGPPGPQGEQGVEGAPAAPVPQVAFSAALSLPRSEPGTVPFDRVLLNDGGYYDPETGVFTAPLAGRYLLSAVLTGHRHEKVEAVLSRSNQGVARVDSGGYEPEGLENKPVAESQPSPGTLGVFSLILPLQAGDTVCVDLVMGQLAHSEEPLTIFSGALLYGDPELEHA
As for B1, the “Activation of CAGA12-lux reporter on mixing R and S cells” value in the series on pro TGF-β processing is on record as “inhibits activation of the reporter construct”. Further, the “Conversion of pro TGF-β1 to LAP and mature TGF-β1 (band intensity)” value with pro TGF-β1 processing (HEK293T cotransfected, cell extracts anti-LAP, supernatants anti-TGF-β1, FIG. 4D) is “inhibit the conversion of pro TGF-β1”. Moreover, in the series with pro TGF-β1 processing, the “Intensity of the band corresponding to mature TGF-β1” value is “decreases” and the “Precursor (pro TGF-β) band” value was “increase”. For the same molecule, in the series on pro TGF-β1 [2] (CAGA12-lux and CMV-lacZ, FIG. 6C), the “Luciferase expression stimulated by transfected pro TGF-β” value is given as “inhibits the stimulating action of transfected pro TGF-β”. Moreover, in the series with pro TGF-β1 [2] (CAGA12-lux, co-transfection with pro TGF-β1 vector, FIG. 2B, 2C), the “Effect on luciferase expression induced by pro TGF-β1” value is “inhibits pro TGF-β”. Moreover, in the series with pro TGF-β, the “Interaction with pro TGF-β (co-immunoprecipitation)” value was “co-precipitates”. For the same molecule, in the series on mature TGF-β1, the “Effect on luciferase expression induced by mature TGF-β” value was “does not antagonize mature TGF-β”.
